Measured values published in US20240279278A1, “NMU RECEPTOR 2 AGONISTS” (Boehringer Ingelheim International GmbH, priority 2023, published 2024).
Starred links: 1 amine or outer side, 2 acyl side, 3 side chain; linkers in the order of their positions; H or OH if unused. Non-standard residues stand in square brackets, D forms with d. *: point of attachment. Pipz(1-CH2CO,4-CH2CH2NH) = O=C(CN1CCN(CCN[*:1])CC1)[*:2]; C18 diacid = O=C(O)CCCCCCCCCCCCCCCCC(=O)*; γGlu = O=C(O)[C@H](CCC(=O)[*:2])N[*:1]; 2Pal = N[C@@H](Cc1ccccn1)C(=O)O; 3Pal = N[C@@H](Cc1cccnc1)C(=O)O; NMeL = CN[C@@H](CC(C)C)C(=O)O; NMeA = CN[C@@H](C)C(=O)O; Nle = CCCC[C@H](N)C(=O)O; Sar = CNCC(=O)O

T1: human neuromedin U receptor 1 (human, UniProt Q9HB89 24-426)
T1 sequence (looked up): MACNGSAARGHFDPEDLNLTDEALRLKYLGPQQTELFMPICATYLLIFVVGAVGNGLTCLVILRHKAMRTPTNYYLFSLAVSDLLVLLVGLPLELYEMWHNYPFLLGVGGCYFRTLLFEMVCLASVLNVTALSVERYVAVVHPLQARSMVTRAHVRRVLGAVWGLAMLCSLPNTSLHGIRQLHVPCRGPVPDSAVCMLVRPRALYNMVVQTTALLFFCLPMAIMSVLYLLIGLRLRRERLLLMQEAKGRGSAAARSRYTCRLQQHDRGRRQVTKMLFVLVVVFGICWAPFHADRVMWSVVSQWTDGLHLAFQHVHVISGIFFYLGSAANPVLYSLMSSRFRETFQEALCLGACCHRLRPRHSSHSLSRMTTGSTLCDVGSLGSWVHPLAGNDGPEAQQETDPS


Target: T1, human neuromedin U receptor 1
Assay: cell-based or functional assay

Binder	EC50 (hNMUR1) buffer
EEEXXXXXXXXXXXXXXXXYFLXKARG (HELM PEPTIDE1{[O=C(O)CCCCCCCCCCCCCCCCC(=O)[*:2]].[gGlu].[gGlu].[gGlu].[Sar].[Sar].[Sar].[Sar].[Sar].[Sar].[Sar].[Sar].[Sar].[Sar].[Sar].[Sar].[Sar].[Sar].[Sar].[O=C(CN1CCN(CCN[*:1])CC1)[*:2]].Y.F.[meL].[Nle].K.[meA].R.G.[am]}$$$$V2.0; SMILES CCCC[C@H](NC(=O)[C@H](CC(C)C)N(C)C(=O)[C@H](Cc1ccccc1)NC(=O)[C@H](Cc1ccc(O)cc1)NC(=O)CN1CCN(CCNC(=O)CN(C)C(=O)CN(C)C(=O)CN(C)C(=O)CN(C)C(=O)CN(C)C(=O)CN(C)C(=O)CN(C)C(=O)CN(C)C(=O)CN(C)C(=O)CN(C)C(=O)CN(C)C(=O)CN(C)C(=O)CN(C)C(=O)CN(C)C(=O)CN(C)C(=O)CC[C@H](NC(=O)CC[C@H](NC(=O)CC[C@H](NC(=O)CCCCCCCCCCCCCCCCC(=O)O)C(=O)O)C(=O)O)C(=O)O)CC1)C(=O)N[C@@H](CCCCN)C(=O)N(C)[C@@H](C)C(=O)N[C@@H](CCCNC(=N)N)C(=O)NCC(N)=O) [C18DA-gGlu3-Sar15-AEPipAc-Tyr-Phe-NMeLeu-Nle-Lys-NMeAla-Arg-Gly-NH2]	> 1000 nM
{C18 diacid}-[γGlu][γGlu][γGlu][Sar][Sar][Sar][Sar][Sar][Sar][Sar][Sar][Sar][Sar][Sar][Sar][Sar][Sar][Sar][Pipz(1-CH2CO,4-CH2CH2NH)]YF[NMeL][Nle][2Pal][NMeA]RG-NH2 (SMILES CCCC[C@H](NC(=O)[C@H](CC(C)C)N(C)C(=O)[C@H](Cc1ccccc1)NC(=O)[C@H](Cc1ccc(O)cc1)NC(=O)CN1CCN(CCNC(=O)CN(C)C(=O)CN(C)C(=O)CN(C)C(=O)CN(C)C(=O)CN(C)C(=O)CN(C)C(=O)CN(C)C(=O)CN(C)C(=O)CN(C)C(=O)CN(C)C(=O)CN(C)C(=O)CN(C)C(=O)CN(C)C(=O)CN(C)C(=O)CN(C)C(=O)CC[C@H](NC(=O)CC[C@H](NC(=O)CC[C@H](NC(=O)CCCCCCCCCCCCCCCCC(=O)O)C(=O)O)C(=O)O)C(=O)O)CC1)C(=O)N[C@@H](Cc1ccccn1)C(=O)N(C)[C@@H](C)C(=O)N[C@@H](CCCNC(=N)N)C(=O)NCC(N)=O) [C18DA-gGlu3-Sar15-AEPipAc-Tyr-Phe-NMeLeu-Nle-2Pal-NMeAla-Arg-Gly-NH2]	> 1000 nM
EEEXXXXXXXXXXXXXXXXYFLXKPRG (HELM PEPTIDE1{[O=C(O)CCCCCCCCCCCCCCCCCCC(=O)[*:2]].[gGlu].[gGlu].[gGlu].[Sar].[Sar].[Sar].[Sar].[Sar].[Sar].[Sar].[Sar].[Sar].[Sar].[Sar].[Sar].[Sar].[Sar].[Sar].[O=C(CN1CCN(CCN[*:1])CC1)[*:2]].Y.F.[meL].[Nle].K.P.R.G.[am]}$$$$V2.0; SMILES CCCC[C@H](NC(=O)[C@H](CC(C)C)N(C)C(=O)[C@H](Cc1ccccc1)NC(=O)[C@H](Cc1ccc(O)cc1)NC(=O)CN1CCN(CCNC(=O)CN(C)C(=O)CN(C)C(=O)CN(C)C(=O)CN(C)C(=O)CN(C)C(=O)CN(C)C(=O)CN(C)C(=O)CN(C)C(=O)CN(C)C(=O)CN(C)C(=O)CN(C)C(=O)CN(C)C(=O)CN(C)C(=O)CN(C)C(=O)CN(C)C(=O)CC[C@H](NC(=O)CC[C@H](NC(=O)CC[C@H](NC(=O)CCCCCCCCCCCCCCCCCCC(=O)O)C(=O)O)C(=O)O)C(=O)O)CC1)C(=O)N[C@@H](CCCCN)C(=O)N1CCC[C@H]1C(=O)N[C@@H](CCCNC(=N)N)C(=O)NCC(N)=O) [C20DA-gGlu3-Sar15-AEPipAc-Tyr-Phe-NMeLeu-Nle-Lys-Pro-Arg-Gly-NH2]	1300 nM
EEEXXXXXXXXXXXXXXXXYFLXKARG (HELM PEPTIDE1{[O=C(O)CCCCCCCCCCCCCCCCCCC(=O)[*:2]].[gGlu].[gGlu].[gGlu].[Sar].[Sar].[Sar].[Sar].[Sar].[Sar].[Sar].[Sar].[Sar].[Sar].[Sar].[Sar].[Sar].[Sar].[Sar].[O=C(CN1CCN(CCN[*:1])CC1)[*:2]].Y.F.[meL].[Nle].K.[meA].R.G.[am]}$$$$V2.0; SMILES CCCC[C@H](NC(=O)[C@H](CC(C)C)N(C)C(=O)[C@H](Cc1ccccc1)NC(=O)[C@H](Cc1ccc(O)cc1)NC(=O)CN1CCN(CCNC(=O)CN(C)C(=O)CN(C)C(=O)CN(C)C(=O)CN(C)C(=O)CN(C)C(=O)CN(C)C(=O)CN(C)C(=O)CN(C)C(=O)CN(C)C(=O)CN(C)C(=O)CN(C)C(=O)CN(C)C(=O)CN(C)C(=O)CN(C)C(=O)CN(C)C(=O)CC[C@H](NC(=O)CC[C@H](NC(=O)CC[C@H](NC(=O)CCCCCCCCCCCCCCCCCCC(=O)O)C(=O)O)C(=O)O)C(=O)O)CC1)C(=O)N[C@@H](CCCCN)C(=O)N(C)[C@@H](C)C(=O)N[C@@H](CCCNC(=N)N)C(=O)NCC(N)=O) [C20DA-gGlu3-Sar15-AEPipAc-Tyr-Phe-NMeLeu-Nle-Lys-NMeAla-Arg-Gly-NH2]	> 1000 nM
EEEXXXXXXXXXXXXXXXXYFLXHPRG (HELM PEPTIDE1{[O=C(O)CCCCCCCCCCCCCCCCC(=O)[*:2]].[gGlu].[gGlu].[gGlu].[Sar].[Sar].[Sar].[Sar].[Sar].[Sar].[Sar].[Sar].[Sar].[Sar].[Sar].[Sar].[Sar].[Sar].[Sar].[O=C(CN1CCN(CCN[*:1])CC1)[*:2]].Y.F.[meL].[Nle].H.P.R.G.[am]}$$$$V2.0; SMILES CCCC[C@H](NC(=O)[C@H](CC(C)C)N(C)C(=O)[C@H](Cc1ccccc1)NC(=O)[C@H](Cc1ccc(O)cc1)NC(=O)CN1CCN(CCNC(=O)CN(C)C(=O)CN(C)C(=O)CN(C)C(=O)CN(C)C(=O)CN(C)C(=O)CN(C)C(=O)CN(C)C(=O)CN(C)C(=O)CN(C)C(=O)CN(C)C(=O)CN(C)C(=O)CN(C)C(=O)CN(C)C(=O)CN(C)C(=O)CN(C)C(=O)CC[C@H](NC(=O)CC[C@H](NC(=O)CC[C@H](NC(=O)CCCCCCCCCCCCCCCCC(=O)O)C(=O)O)C(=O)O)C(=O)O)CC1)C(=O)N[C@@H](Cc1c[nH]cn1)C(=O)N1CCC[C@H]1C(=O)N[C@@H](CCCNC(=N)N)C(=O)NCC(N)=O) [C18DA-gGlu3-Sar15-AEPipAc-Tyr-Phe-NMeLeu-Nle-His-Pro-Arg-Gly-NH2]	> 1000 nM
EEEXXXXXXXXXXXXXXXXYFLXRPRG (HELM PEPTIDE1{[O=C(O)CCCCCCCCCCCCCCCCC(=O)[*:2]].[gGlu].[gGlu].[gGlu].[Sar].[Sar].[Sar].[Sar].[Sar].[Sar].[Sar].[Sar].[Sar].[Sar].[Sar].[Sar].[Sar].[Sar].[Sar].[O=C(CN1CCN(CCN[*:1])CC1)[*:2]].Y.F.[meL].[Nle].[meR].P.R.G.[am]}$$$$V2.0; SMILES CCCC[C@H](NC(=O)[C@H](CC(C)C)N(C)C(=O)[C@H](Cc1ccccc1)NC(=O)[C@H](Cc1ccc(O)cc1)NC(=O)CN1CCN(CCNC(=O)CN(C)C(=O)CN(C)C(=O)CN(C)C(=O)CN(C)C(=O)CN(C)C(=O)CN(C)C(=O)CN(C)C(=O)CN(C)C(=O)CN(C)C(=O)CN(C)C(=O)CN(C)C(=O)CN(C)C(=O)CN(C)C(=O)CN(C)C(=O)CN(C)C(=O)CC[C@H](NC(=O)CC[C@H](NC(=O)CC[C@H](NC(=O)CCCCCCCCCCCCCCCCC(=O)O)C(=O)O)C(=O)O)C(=O)O)CC1)C(=O)N(C)[C@@H](CCCNC(=N)N)C(=O)N1CCC[C@H]1C(=O)N[C@@H](CCCNC(=N)N)C(=O)NCC(N)=O) [C18DA-gGlu3-Sar15-AEPipAc-Tyr-Phe-NMeLeu-Nle-NMeArg-Pro-Arg-Gly-NH2]	200 nM
EEEXXXXXXXXXXXXXXXXYFLXRARG (HELM PEPTIDE1{[O=C(O)CCCCCCCCCCCCCCCCC(=O)[*:2]].[gGlu].[gGlu].[gGlu].[Sar].[Sar].[Sar].[Sar].[Sar].[Sar].[Sar].[Sar].[Sar].[Sar].[Sar].[Sar].[Sar].[Sar].[Sar].[O=C(CN1CCN(CCN[*:1])CC1)[*:2]].Y.F.[meL].[Nle].[meR].[meA].R.G.[am]}$$$$V2.0; SMILES CCCC[C@H](NC(=O)[C@H](CC(C)C)N(C)C(=O)[C@H](Cc1ccccc1)NC(=O)[C@H](Cc1ccc(O)cc1)NC(=O)CN1CCN(CCNC(=O)CN(C)C(=O)CN(C)C(=O)CN(C)C(=O)CN(C)C(=O)CN(C)C(=O)CN(C)C(=O)CN(C)C(=O)CN(C)C(=O)CN(C)C(=O)CN(C)C(=O)CN(C)C(=O)CN(C)C(=O)CN(C)C(=O)CN(C)C(=O)CN(C)C(=O)CC[C@H](NC(=O)CC[C@H](NC(=O)CC[C@H](NC(=O)CCCCCCCCCCCCCCCCC(=O)O)C(=O)O)C(=O)O)C(=O)O)CC1)C(=O)N(C)[C@@H](CCCNC(=N)N)C(=O)N(C)[C@@H](C)C(=O)N[C@@H](CCCNC(=N)N)C(=O)NCC(N)=O) [C18DA-gGlu3-Sar15-AEPipAc-Tyr-Phe-NMeLeu-Nle-NMeArg-NMeAla-Arg-Gly-NH2]	1300 nM
{C18 diacid}-[γGlu][γGlu][γGlu][Sar][Sar][Sar][Sar][Sar][Sar][Sar][Sar][Sar][Sar][Sar][Sar][Sar][Sar][Sar][Pipz(1-CH2CO,4-CH2CH2NH)]YF[NMeL][Nle][3Pal]PRG-NH2 (SMILES CCCC[C@H](NC(=O)[C@H](CC(C)C)N(C)C(=O)[C@H](Cc1ccccc1)NC(=O)[C@H](Cc1ccc(O)cc1)NC(=O)CN1CCN(CCNC(=O)CN(C)C(=O)CN(C)C(=O)CN(C)C(=O)CN(C)C(=O)CN(C)C(=O)CN(C)C(=O)CN(C)C(=O)CN(C)C(=O)CN(C)C(=O)CN(C)C(=O)CN(C)C(=O)CN(C)C(=O)CN(C)C(=O)CN(C)C(=O)CN(C)C(=O)CC[C@H](NC(=O)CC[C@H](NC(=O)CC[C@H](NC(=O)CCCCCCCCCCCCCCCCC(=O)O)C(=O)O)C(=O)O)C(=O)O)CC1)C(=O)N[C@@H](Cc1cccnc1)C(=O)N1CCC[C@H]1C(=O)N[C@@H](CCCNC(=N)N)C(=O)NCC(N)=O) [C18DA-gGlu3-Sar15-AEPipAc-Tyr-Phe-NMeLeu-Nle-3Pal-Pro-Arg-Gly-NH2]	> 1000 nM
